Target: ZIKV Recombinant Envelope Protein (Meridian Life Sciences, Cat # R01635) (Zika virus)
Test: ELISA on coated recombinant ZIKV E protein, dilutions of the mAb as positive control

## monoclonal anti-Flavivirus group antigen clone D1-4G2-4-15, ascites (Cat# MAB10216, EMD Millipore) (antibody)
  end point titre: 16000

From US9833505
